From publication PMC10041117

Legend:
[1] = molecular target: isolated bovine native thin filaments (NTFs) (bovine), Q3ZC07; experiment: co-sedimentation; C0C2 constructs cosedimented with isolated bovine native thin filaments (NTFs); as in ref. 15
[2] = molecular target: myosin S2Δ (fragment of the S2 region of myosin consisting of its first 128 residues); experiment: MST; C0C2 constructs binding to myosin S2Δ; as in refs 15 and 25
myosin S2Δ (fragment of the S2 region of myosin consisting of its first 128 residues), sequence (P12883 838-965, stated change not applied): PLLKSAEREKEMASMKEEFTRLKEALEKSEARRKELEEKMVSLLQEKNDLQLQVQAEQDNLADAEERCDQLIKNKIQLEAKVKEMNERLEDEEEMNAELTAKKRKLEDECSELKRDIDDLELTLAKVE

Kd [1] [µM]	Kd [2] [µM]	Binder
18	35	mTFP-C0C2 (C0C2 of cMyBP-C conjugated to mTFP at its N terminus) (domain or fragment, modifications not checked) MPEPGKRPVSAFTKKPRSVEVTAGSAAVFEAETERSGLKVQWQRDGSDIAANDKYGLAAEGKRHTLTVRDVGPDDQGSYAVIAGSSKVKFDLKVTEPAPPEKAESAVAPTSMEAPETPKEVPALATQLEGNVSSPEGSVSVTQDGSVAGSQGAPDDPIGLFLMRPQDGEVTVGGSIVFSARVAGASLLKPPVVKWFKGKWVDLSSKVGQHLQLHDSYDRASKVYLFELHITDAQATSAGGYRCEVSTKDKFDSCNFNLTVHEAIGSGDLDLRSAFRRTSLAGTGRRTSDSHEDAGTLDFSSLLKKSSFRRDSKLEAPAEEDVWEILRQAPPSEYERIAFQHGVTDLRGMLKRLKGMKHDEKKSTAFQKKLEPAYQVNKGHKIRLTVELADPDAEVKWLKNGQEIQMSGRYIFESIGAKRTLTISQCSLADDAAYQCVVGGEKCSTELFVKEP
42	20	N-terminal fragment of cMyBP-C containing domains C0 through C2 (C0C2), wild type (domain or fragment, modifications not checked) MPEPGKRPVSAFTKKPRSVEVTAGSAAVFEAETERSGLKVQWQRDGSDIAANDKYGLAAEGKRHTLTVRDVGPDDQGSYAVIAGSSKVKFDLKVTEPAPPEKAESAVAPTSMEAPETPKEVPALATQLEGNVSSPEGSVSVTQDGSVAGSQGAPDDPIGLFLMRPQDGEVTVGGSIVFSARVAGASLLKPPVVKWFKGKWVDLSSKVGQHLQLHDSYDRASKVYLFELHITDAQATSAGGYRCEVSTKDKFDSCNFNLTVHEAIGSGDLDLRSAFRRTSLAGTGRRTSDSHEDAGTLDFSSLLKKSSFRRDSKLEAPAEEDVWEILRQAPPSEYERIAFQHGVTDLRGMLKRLKGMKHDEKKSTAFQKKLEPAYQVNKGHKIRLTVELADPDAEVKWLKNGQEIQMSGRYIFESIGAKRTLTISQCSLADDAAYQCVVGGEKCSTELFVKEP
